# Laboratory results taken from patent US9176064B2, “Bisubstrate fluorescent probes for protein kinase CK2” (University of Tartu, priority 2012, dated 2015).
# Where a SMILES comes first, the peptide text is derived from it. [ ]: non-standard residue; d: D form. The star is where a group is joined. X1 = O=C(CCCCCCCn1cnc2c(Br)c(Br)c(Br)c(Br)c21)*
# Legend:
# Assay in all cases: Kinase panel residual activity
# Format in all cases: biochemical
# Conditions in all cases: compound at 1 micromolar
# EPH-A2 = EPH-A2 (Homo sapiens, UniProt P29317)
# Chain of EPH-A2 (P29317 24-976, species assumed): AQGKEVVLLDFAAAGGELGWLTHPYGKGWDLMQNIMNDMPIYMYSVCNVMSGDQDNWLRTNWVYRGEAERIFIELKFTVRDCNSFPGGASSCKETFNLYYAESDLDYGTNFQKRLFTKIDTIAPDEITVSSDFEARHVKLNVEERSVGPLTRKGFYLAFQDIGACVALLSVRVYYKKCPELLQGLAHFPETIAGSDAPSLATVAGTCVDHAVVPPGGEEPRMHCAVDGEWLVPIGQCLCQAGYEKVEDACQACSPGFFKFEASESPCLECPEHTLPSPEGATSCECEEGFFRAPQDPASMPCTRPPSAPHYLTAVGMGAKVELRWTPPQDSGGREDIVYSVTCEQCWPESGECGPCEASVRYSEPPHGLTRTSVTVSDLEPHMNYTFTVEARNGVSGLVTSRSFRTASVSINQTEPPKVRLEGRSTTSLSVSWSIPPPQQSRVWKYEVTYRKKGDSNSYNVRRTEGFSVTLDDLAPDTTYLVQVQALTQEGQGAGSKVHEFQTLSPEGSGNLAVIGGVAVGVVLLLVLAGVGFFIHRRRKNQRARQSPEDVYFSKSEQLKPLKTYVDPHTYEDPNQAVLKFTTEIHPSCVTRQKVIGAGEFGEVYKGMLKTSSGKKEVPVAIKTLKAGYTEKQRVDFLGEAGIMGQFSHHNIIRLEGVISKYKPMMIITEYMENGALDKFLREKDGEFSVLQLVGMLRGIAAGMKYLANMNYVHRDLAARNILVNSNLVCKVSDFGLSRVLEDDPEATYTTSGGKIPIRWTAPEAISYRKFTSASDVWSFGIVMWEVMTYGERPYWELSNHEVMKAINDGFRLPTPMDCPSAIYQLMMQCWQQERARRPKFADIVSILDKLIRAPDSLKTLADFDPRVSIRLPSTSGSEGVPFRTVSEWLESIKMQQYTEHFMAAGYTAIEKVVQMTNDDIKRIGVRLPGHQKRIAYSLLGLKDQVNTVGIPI
# MKK1 = MKK1 (Homo sapiens, UniProt Q02750)
# Chain of MKK1 (Q02750 whole entry, species assumed): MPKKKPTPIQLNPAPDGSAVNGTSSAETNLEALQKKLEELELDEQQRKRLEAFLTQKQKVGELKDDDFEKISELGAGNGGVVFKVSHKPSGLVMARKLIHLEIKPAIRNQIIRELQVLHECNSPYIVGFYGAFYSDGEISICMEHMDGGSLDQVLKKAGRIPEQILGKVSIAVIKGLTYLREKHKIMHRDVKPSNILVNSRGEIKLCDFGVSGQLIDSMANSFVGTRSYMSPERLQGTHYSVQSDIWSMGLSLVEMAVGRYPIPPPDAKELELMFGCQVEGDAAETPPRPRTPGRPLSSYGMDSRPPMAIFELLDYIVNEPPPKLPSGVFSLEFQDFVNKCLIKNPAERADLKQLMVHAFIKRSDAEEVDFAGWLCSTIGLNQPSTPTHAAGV
# PDK1 = target: T1, PDK1 (Homo sapiens, UniProt O15530)
# T1 sequence (O15530 1-556): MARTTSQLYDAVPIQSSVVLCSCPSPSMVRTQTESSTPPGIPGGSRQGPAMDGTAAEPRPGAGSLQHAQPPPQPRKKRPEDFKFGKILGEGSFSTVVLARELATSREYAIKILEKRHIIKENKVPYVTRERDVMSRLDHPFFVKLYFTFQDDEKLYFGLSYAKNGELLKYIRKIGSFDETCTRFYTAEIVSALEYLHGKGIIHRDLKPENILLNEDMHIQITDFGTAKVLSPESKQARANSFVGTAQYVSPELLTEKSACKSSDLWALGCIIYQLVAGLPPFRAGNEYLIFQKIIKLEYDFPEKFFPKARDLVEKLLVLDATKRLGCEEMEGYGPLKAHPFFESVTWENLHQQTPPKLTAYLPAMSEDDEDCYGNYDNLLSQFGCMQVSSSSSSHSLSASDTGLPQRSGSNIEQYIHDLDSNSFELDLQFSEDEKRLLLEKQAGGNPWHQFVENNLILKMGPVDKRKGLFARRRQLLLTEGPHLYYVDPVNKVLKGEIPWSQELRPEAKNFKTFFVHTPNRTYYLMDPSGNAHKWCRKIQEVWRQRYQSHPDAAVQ
# EPH-B4 = target: T2, EPH-B4 (Homo sapiens, UniProt P54760)
# T2 sequence (P54760 16-987): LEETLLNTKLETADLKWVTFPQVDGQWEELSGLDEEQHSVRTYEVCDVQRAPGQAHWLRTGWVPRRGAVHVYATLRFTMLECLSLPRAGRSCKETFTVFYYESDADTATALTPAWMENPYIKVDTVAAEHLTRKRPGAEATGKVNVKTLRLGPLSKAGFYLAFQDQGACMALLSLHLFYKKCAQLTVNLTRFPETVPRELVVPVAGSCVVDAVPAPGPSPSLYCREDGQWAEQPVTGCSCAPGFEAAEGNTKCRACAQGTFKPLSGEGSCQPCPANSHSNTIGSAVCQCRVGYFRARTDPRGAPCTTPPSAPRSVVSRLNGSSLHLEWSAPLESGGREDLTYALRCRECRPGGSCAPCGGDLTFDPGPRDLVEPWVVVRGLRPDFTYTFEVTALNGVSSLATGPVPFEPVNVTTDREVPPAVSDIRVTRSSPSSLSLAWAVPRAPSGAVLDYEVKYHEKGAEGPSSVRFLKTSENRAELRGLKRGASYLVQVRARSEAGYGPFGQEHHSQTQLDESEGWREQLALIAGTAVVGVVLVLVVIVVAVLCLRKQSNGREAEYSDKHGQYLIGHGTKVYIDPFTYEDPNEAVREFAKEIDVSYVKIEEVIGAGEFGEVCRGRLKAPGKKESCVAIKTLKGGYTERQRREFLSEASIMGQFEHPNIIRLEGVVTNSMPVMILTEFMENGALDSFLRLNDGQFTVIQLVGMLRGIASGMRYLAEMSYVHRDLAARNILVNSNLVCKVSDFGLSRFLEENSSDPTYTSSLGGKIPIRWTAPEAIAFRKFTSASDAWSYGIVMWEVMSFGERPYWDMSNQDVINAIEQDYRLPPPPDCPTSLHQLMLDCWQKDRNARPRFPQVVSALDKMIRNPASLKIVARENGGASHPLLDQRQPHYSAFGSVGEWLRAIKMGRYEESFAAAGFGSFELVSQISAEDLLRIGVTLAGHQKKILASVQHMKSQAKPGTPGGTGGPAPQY
# EF2K = EF2K (Homo sapiens, UniProt O00418)
# Chain of EF2K (O00418 whole entry): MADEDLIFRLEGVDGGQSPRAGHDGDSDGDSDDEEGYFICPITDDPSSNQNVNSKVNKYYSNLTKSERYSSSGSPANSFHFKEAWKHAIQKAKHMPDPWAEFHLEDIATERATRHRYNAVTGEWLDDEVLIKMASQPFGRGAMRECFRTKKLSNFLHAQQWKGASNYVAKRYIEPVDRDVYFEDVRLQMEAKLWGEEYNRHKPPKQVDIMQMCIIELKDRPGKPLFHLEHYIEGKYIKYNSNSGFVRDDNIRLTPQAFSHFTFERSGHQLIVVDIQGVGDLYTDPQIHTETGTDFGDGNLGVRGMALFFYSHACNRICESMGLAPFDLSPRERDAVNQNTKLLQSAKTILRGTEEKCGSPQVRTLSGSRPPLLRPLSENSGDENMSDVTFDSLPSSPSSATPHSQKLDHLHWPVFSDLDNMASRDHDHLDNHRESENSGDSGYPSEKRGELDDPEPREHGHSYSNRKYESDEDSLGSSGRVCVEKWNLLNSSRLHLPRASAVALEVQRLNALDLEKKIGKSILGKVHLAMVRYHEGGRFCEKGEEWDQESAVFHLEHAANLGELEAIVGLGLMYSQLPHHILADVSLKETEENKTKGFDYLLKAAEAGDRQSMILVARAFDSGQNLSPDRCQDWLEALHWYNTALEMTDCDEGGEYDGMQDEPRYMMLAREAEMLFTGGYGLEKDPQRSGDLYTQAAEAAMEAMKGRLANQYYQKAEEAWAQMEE
# PKCz = target: T3, PKCz (Homo sapiens, UniProt Q05513)
# T3 sequence (Q05513 1-592): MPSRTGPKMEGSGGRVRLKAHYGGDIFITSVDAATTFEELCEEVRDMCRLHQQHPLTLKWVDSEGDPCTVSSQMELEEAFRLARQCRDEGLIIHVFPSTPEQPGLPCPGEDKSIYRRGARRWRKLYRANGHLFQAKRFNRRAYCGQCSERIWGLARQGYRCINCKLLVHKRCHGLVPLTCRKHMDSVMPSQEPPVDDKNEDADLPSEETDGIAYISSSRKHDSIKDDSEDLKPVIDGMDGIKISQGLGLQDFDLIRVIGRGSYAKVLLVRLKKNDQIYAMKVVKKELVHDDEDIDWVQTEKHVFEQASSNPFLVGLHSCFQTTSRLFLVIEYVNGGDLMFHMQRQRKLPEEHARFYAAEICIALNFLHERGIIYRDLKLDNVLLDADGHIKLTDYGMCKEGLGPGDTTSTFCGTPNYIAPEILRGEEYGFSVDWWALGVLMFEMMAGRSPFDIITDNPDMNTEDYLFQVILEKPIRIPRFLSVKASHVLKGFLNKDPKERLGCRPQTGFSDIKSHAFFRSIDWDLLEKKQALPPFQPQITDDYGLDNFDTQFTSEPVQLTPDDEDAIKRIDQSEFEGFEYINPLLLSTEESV
# NEK2a = target: T4, NEK2a (Homo sapiens, UniProt P51955)
# T4 sequence (P51955 1-445): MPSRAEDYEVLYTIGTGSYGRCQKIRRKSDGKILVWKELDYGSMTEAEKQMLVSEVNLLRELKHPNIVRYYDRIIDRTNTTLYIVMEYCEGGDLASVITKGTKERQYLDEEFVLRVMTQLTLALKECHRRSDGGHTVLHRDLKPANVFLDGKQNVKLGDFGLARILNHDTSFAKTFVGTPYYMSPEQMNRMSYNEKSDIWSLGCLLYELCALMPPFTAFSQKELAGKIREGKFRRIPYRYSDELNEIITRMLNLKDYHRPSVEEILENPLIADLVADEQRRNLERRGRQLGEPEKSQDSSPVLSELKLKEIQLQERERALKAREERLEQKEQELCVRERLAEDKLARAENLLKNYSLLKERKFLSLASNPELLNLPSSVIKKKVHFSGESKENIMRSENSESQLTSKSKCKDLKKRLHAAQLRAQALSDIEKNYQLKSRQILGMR
# IGF-1R = IGF-1R (Homo sapiens, UniProt P08069)
# Chain of IGF-1R (P08069 31-1367, species assumed): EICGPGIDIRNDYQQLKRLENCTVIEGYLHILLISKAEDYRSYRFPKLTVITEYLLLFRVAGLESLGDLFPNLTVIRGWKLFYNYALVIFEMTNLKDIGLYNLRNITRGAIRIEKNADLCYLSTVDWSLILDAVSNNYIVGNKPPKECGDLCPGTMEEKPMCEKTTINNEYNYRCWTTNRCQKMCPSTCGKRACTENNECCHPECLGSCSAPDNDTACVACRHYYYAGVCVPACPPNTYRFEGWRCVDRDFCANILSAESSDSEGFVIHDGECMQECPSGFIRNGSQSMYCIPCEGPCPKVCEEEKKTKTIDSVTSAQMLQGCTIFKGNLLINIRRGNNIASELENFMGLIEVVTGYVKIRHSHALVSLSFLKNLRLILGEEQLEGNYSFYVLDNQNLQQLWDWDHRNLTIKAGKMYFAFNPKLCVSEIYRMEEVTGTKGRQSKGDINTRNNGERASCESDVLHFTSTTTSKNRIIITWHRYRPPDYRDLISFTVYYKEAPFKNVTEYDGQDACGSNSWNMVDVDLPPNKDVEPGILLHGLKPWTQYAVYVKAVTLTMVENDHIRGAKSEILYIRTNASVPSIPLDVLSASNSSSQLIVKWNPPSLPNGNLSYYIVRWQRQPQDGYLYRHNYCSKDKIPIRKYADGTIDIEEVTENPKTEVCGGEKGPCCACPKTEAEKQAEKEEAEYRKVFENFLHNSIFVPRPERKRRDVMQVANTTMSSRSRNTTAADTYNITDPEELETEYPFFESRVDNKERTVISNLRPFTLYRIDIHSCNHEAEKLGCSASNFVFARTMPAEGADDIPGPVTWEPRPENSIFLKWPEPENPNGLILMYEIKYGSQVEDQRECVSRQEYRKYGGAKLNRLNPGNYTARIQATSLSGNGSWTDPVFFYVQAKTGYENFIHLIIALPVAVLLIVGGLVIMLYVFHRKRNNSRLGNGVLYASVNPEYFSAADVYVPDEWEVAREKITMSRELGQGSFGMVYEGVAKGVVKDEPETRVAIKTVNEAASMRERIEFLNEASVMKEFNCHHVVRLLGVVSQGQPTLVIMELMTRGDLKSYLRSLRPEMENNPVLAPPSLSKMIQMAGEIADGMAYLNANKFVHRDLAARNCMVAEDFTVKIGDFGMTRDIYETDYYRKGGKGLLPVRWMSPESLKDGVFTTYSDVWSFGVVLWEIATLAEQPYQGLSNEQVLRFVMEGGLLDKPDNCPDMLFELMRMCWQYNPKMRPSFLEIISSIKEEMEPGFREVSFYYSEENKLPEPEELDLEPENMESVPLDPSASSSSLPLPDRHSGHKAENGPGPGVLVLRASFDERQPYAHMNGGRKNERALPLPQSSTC
# PKBa = PKBa (Homo sapiens, UniProt P31749)
# Chain of PKBa (P31749 whole entry): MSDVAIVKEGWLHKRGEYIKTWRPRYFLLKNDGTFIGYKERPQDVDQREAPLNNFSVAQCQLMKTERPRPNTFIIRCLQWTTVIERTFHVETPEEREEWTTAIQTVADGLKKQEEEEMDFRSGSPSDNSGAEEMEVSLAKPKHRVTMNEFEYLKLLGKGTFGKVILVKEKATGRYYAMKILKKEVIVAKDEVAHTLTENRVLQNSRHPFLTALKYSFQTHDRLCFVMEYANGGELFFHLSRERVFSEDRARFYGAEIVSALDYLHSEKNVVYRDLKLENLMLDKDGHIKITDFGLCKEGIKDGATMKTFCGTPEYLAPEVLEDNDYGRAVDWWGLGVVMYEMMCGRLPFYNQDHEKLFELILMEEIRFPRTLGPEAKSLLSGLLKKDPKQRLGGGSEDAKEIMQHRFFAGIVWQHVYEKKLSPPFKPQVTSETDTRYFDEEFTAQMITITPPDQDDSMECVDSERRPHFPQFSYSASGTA
# SIK2 = SIK2 (Homo sapiens, UniProt Q9H0K1)
# Chain of SIK2 (Q9H0K1 whole entry, species assumed): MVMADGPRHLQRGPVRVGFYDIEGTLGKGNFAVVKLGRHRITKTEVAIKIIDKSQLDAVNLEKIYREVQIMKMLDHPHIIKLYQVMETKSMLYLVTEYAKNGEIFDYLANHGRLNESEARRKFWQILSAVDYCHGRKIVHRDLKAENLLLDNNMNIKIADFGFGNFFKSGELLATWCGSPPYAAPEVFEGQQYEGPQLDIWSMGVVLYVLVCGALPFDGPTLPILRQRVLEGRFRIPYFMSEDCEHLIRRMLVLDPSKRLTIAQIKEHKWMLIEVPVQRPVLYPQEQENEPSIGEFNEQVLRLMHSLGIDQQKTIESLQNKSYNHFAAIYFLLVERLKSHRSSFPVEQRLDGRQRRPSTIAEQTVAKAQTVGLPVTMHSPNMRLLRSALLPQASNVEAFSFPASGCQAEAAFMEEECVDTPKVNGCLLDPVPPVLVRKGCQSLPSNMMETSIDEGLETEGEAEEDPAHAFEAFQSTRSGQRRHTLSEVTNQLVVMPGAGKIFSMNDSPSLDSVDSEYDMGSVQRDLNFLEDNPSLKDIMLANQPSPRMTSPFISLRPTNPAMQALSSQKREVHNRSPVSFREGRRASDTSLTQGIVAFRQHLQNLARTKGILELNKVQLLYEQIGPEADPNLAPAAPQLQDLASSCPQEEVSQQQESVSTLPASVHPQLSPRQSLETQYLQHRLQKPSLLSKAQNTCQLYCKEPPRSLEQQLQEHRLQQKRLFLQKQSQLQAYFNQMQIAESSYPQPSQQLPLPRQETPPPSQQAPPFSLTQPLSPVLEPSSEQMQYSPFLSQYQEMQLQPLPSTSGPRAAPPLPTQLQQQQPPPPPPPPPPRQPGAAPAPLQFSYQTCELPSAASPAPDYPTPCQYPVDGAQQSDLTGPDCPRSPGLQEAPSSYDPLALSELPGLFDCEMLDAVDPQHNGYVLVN
smiles,measurement,setting,value
NCCCC[C@H](NC(=O)[C@H](CC(=O)O)NC(=O)[C@H](CC(=O)O)NC(=O)[C@H](CC(=O)O)NC(=O)[C@H](CC(=O)O)NC(=O)[C@H](CC(=O)O)NC(=O)[C@@H](CC(=O)O)NC(=O)CCCCCCCn1cnc2c(Br)c(Br)c(Br)c(Br)c21)C(=O)O [TBBI-OcA-(D-Asp)-(L-Asp)5-(L-Lys)-OH] (X1-[dD]DDDDDK-OH),remaining activity at 1 µM,EPH-A2,80%
same,remaining activity at 1 µM,MKK1,101%
same,remaining activity at 1 µM,PDK1,86%
same,remaining activity at 1 µM,EPH-B4,104%
same,remaining activity at 1 µM,EF2K,80%
same,remaining activity at 1 µM,PKCz,105%
same,remaining activity at 1 µM,NEK2a,94%
same,remaining activity at 1 µM,IGF-1R,116%
same,remaining activity at 1 µM,PKBa,73%
same,remaining activity at 1 µM,SIK2,74%
